From patent publication US20180291082A1 (IMMATICS BIOTECHNOLOGIES, published 2018)

Legend:
HLA-A*01:01 = molecular target: T1, HLA-A*01:01 (human); assay: UV-ligand exchange, anti-b2m ELISA; exchange yield grade (+ >10%, ++ >20%, +++ >50, ++++ >75%)
T1 construct: Peptide-receptive MHC monomer made by UV cleavage of a UV-sensitive peptide
Source text: (§1) Candidate peptides for T cell based therapies according to the present invention were further tested for their MHC binding capacity (affinity). The individual peptide-MHC complexes were produced by UV-ligand exchange, where a UV-sensitive peptide is cleaved upon UV-irradiation, and exchanged with the peptide of interest as analyzed. Only peptide candidates that can effectively bind and stabilize the peptide-receptive MHC molecules prevent dissociation of the MHC complexes. To determine the yield of the exchange reaction, an ELISA was performed based on the detection of the light chain (β2m) of stabilized MHC complexes. The assay was performed as generally described in Rodenko et al. (Rodenko et al., 2006).
(§2) 96 well MAXISorp plates (NUNC) were coated over night with 2 ug/ml streptavidin in PBS at room temperature, washed 4× and blocked for 1 h at 37° C. in 2% BSA containing blocking buffer. Refolded HLA-A*02:01/MLA-001 monomers served as standards, covering the range of 15-500 ng/ml. Peptide-MHC monomers of the UV-exchange reaction were diluted 100-fold in blocking buffer. Samples were incubated for 1 h at 37° C., washed four times, incubated with 2 ug/ml HRP conjugated anti-β2m for 1 h at 37° C., washed again and detected with TMB solution that is stopped with […]. Absorption was measured at 450 nm. Candidate peptides that show a high exchange yield (preferably higher than 50%, most preferred higher than 75%) are generally preferred for a generation and production of antibodies or fragments thereof, and/or T cell receptors or fragments thereof, as they show sufficient avidity to the MHC molecules and prevent dissociation of the MHC complexes.

HLA-A*03:01 = molecular target: T2, HLA-A*03:01 (human); assay: as above
T2 construct: Peptide-receptive MHC monomer made by UV cleavage of a UV-sensitive peptide
Source text: as §1, §2

| Binder | peptide exchange yield (HLA-A*01:01) | peptide exchange yield (HLA-A*03:01) |
| --- | --- | --- |
| FASDLLHLY | 20 to 50% | – |
| KTYVGHPVKM | – | 50 to 75% |
| RSDPVTLDV | 50 to 75% | – |
| AVLDLGSLLAK | – | 50 to 75% |
| ITDFNNIRY | 50 to 75% | – |
| LDSHIHAY | 10 to 20% | – |
| ASSTDSASYY | 50 to 75% | – |
| GSTMVEHNY | 20 to 50% | – |
| ATYEGIQKK | – | 20 to 50% |
| KMAAWPFSR | – | 50 to 75% |
| KTPSGALHRK | – | 20 to 50% |
| EVSNGKWLLY | 50 to 75% | – |
| ITFGERFEY | 50 to 75% | – |
| ATVGYFIFY | 20 to 50% | – |
| KVLGPNGLLK | – | 20 to 50% |
| GSRLGKYYVK | – | 10 to 20% |
| ATWSASLKNK | – | 50 to 75% |
| ALDKPGKSK | – | 20 to 50% |
| ATALSLSNK | – | 50 to 75% |
| EVLDSHIHAY | 10 to 20% | – |
| ITAQNHGY | 20 to 50% | – |
| KLFGTSGQK | – | 50 to 75% |
| FADKIHLAY | 50 to 75% | – |
| ATAYGSTVSK | – | 20 to 50% |
| FSDKELAAY | > 75% | – |
| KSFDRHFEK | – | 50 to 75% |
| AVATKFVNK | – | 20 to 50% |
| GSYSALLAKK | – | 50 to 75% |
| KLGNNPVSK | – | 20 to 50% |

Next, values leading:

| peptide exchange yield (HLA-A*01:01) | peptide exchange yield (HLA-A*03:01) | Binder |
| --- | --- | --- |
| 50 to 75% | – | VSNGKWLLY |
| – | 20 to 50% | SVKLQGTSK |
| – | 20 to 50% | TVASLHTEK |
| 10 to 20% | – | YTHHLFIFY |
| 50 to 75% | – | TLEQVQLYY |
| 50 to 75% | – | RSDPVTLNV |
| – | 20 to 50% | STKSTSPPK |
| – | 50 to 75% | SSYSRSSAVK |
| – | 20 to 50% | VLGPNGLLK |
| 20 to 50% | – | LPSPTDSNFY |
| 50 to 75% | – | YAAYIIHAY |
| – | 20 to 50% | QVPTFTIPK |
| 50 to 75% | – | LTDYLKNTY |
| – | 50 to 75% | TAYGSTVSK |
| – | 20 to 50% | STTKLYLAK |
| – | 20 to 50% | SSASLAHMK |
| – | 50 to 75% | RIYNGIGVSR |
| 50 to 75% | – | YTERDGSAMVY |
| > 75% | – | VTDLEMPHY |

| peptide exchange yield (HLA-A*01:01) | peptide exchange yield (HLA-A*03:01) | Binder |
| --- | --- | --- |
| 20 to 50% | – | LMKEVMEHY |
| 50 to 75% | – | LTDSFPLKV |
| 50 to 75% | – | YTDKLQHY |
| 50 to 75% | – | LSAGSGPGQY |
| 20 to 50% | – | LSLIDRLVLY |
| 10 to 20% | – | TASEDVFQY |
| – | 20 to 50% | STSHHLVSR |
| 50 to 75% | – | LTDYINANY |
| 10 to 20% | – | SVTDLEMPHY |
| – | 50 to 75% | RLFESSFHY |
| 50 to 75% | – | STDEITTRY |
| – | 50 to 75% | SAFGYVFPK |
| – | 20 to 50% | MLLQQPLIY |
| 50 to 75% | – | VLDSHIHAY |
| – | 20 to 50% | STNNEGNLK |
| 20 to 50% | – | RSPNNFLSY |
| 50 to 75% | – | STDIGALMY |
| – | 50 to 75% | QLYSKFLLK |
